How the values were obtained:
Sco3058 [1] = target: T1, Sco3058 (Streptomyces coelicolor, UniProt Q93J45); assay: ninhydrin-based dipeptidase assay, L-Leu-D-Ala substrate; format: biochemical
T1 sequence (Q93J45 1-400): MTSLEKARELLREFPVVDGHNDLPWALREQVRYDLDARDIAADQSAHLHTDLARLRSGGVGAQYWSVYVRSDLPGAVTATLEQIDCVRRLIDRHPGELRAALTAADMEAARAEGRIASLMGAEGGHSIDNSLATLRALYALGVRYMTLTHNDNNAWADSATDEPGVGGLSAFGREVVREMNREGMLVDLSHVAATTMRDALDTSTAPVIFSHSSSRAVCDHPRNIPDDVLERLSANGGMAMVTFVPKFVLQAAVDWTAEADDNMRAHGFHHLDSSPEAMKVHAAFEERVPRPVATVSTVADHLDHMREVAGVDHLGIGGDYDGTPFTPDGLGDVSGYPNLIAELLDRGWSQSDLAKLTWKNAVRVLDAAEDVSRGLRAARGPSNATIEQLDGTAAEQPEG

Sco3058 [2] = target: T1, Sco3058; assay: crystal structure at […] Å; format: biochemical
purified protein = substrate: CC(C)C[C@@H](NC(=O)[C@@H](N)Cc1ccc(O)cc1)C(=O)O; assay: purified protein; conditions: […] Zn2+
[3] = substrate: N=C(N)NCCC[C@H](N)C(=O)N[C@H](CC(=O)O)C(=O)O; assay: steady-state kinetics of hydrolysis by purified enzyme; format: biochemical, Streptomyces coelicolor; conditions: […] Zn2+
[4] = substrate: CSCC[C@H](N)C(=O)N[C@H](CC(C)C)C(=O)O; assay: as above; format: biochemical, Streptomyces coelicolor; conditions: […] Zn2+
[5] = substrate: CC(C)C[C@H](N)C(=O)N[C@H](C)C(=O)O; assay: as above; format: biochemical, Streptomyces coelicolor; conditions: […] Zn2+
[6] = substrate: CSCC[C@H](N)C(=O)N[C@H](CCC(=O)O)C(=O)O; assay: as above; format: biochemical, Streptomyces coelicolor; conditions: […] Zn2+
[7] = substrate: CC(C)C[C@H](N)C(=O)N[C@H](CCC(=O)O)C(=O)O; assay: as above; format: biochemical, Streptomyces coelicolor; conditions: […] Zn2+

## NC(Cc1ccc(O)cc1)P(=O)(O)CC(CC(=O)O)C(=O)O (racemic) [compound 3, phosphinate pseudodipeptide mimic of Tyr-Asp]
Sco3058 [1]
  Ki: 1.1 ± 0.2 µM

## O=C(O)CC(O)(CC(=O)O)C(=O)O [citrate]
Sco3058 [2]
  Ki: 25000 ± 15000 µM

## NC(Cc1ccccc1)P(=O)(O)CC(CC(=O)O)C(=O)O (racemic) [compound 2, phosphinate pseudodipeptide mimic of Phe-Asp]
Sco3058 [1]
  Ki: 2.3 ± 0.3 µM

B1: Sco3058 (Streptomyces coelicolor A3(2)) (protein)
chain: MTSLEKARELLREFPVVDGHNDLPWALREQVRYDLDARDIAADQSAHLHTDLARLRSGGVGAQYWSVYVRSDLPGAVTATLEQIDCVRRLIDRHPGELRAALTAADMEAARAEGRIASLMGAEGGHSIDNSLATLRALYALGVRYMTLTHNDNNAWADSATDEPGVGGLSAFGREVVREMNREGMLVDLSHVAATTMRDALDTSTAPVIFSHSSSRAVCDHPRNIPDDVLERLSANGGMAMVTFVPKFVLQAAVDWTAEADDNMRAHGFHHLDSSPEAMKVHAAFEERVPRPVATVSTVADHLDHMREVAGVDHLGIGGDYDGTPFTPDGLGDVSGYPNLIAELLDRGWSQSDLAKLTWKNAVRVLDAAEDVSRGLRAARGPSNATIEQLDGTAAEQPEG
Purified protein
  Km: 170 ± 10 µM
  kcat: 24 s⁻¹
  kcat/Km: 150000 M⁻¹ s⁻¹
[3]
  Km: 140 ± 20 µM
  kcat: 107 ± 3.2 s⁻¹
  kcat/Km: 760000 ± 90000 M⁻¹ s⁻¹
[4]
  Km: 560 ± 30 µM
  kcat: 194 ± 4 s⁻¹
  kcat/Km: 350000 ± 30000 M⁻¹ s⁻¹
[5]
  Km: 750 ± 40 µM
  kcat: 160 ± 3 s⁻¹
  kcat/Km: 210000 ± 10000 M⁻¹ s⁻¹
[6]
  Km: 890 ± 40 µM
  kcat: 340 ± 4 s⁻¹
  kcat/Km: 380000 ± 20000 M⁻¹ s⁻¹
[7]
  Km: 550 ± 30 µM
  kcat: 135 ± 2 s⁻¹
  kcat/Km: 250000 ± 10000 M⁻¹ s⁻¹
